Reference: the DeepSol protein solubility set

Experiment: soluble on expression in E. coli; label from the status in PepcDB or PDB records

Soluble on expression in E. coli, not soluble:
MGSDKIHHHHHHMQDTKYYEPTNIFRQPAINIKKRSDKKRILQSMMTLSTYKKTWQNNTSKMNSPILRKASDNFNDYYTTKKLKSDYWKLYGVDESELSIPSDMSIVDNILLVSTMNEKDNLKLFEISAEKKLKELQTITVPGKPITCICLLPMVDFPPQIFPSSQINPNHNQLILTGHQDGIVNLIATSTYKGCAKIIKRFNHNKFLKSTVSTSIPILEITPKTAPILKVSPWNKTGFVSLLNDSLFIYDLKSNLDCIKTPIFLQSYPGINSFAVNEFHDPFLLALVGSKFGPNGISLLDLRTNLYIPDILDNSISAGCGKDHLQRKNTSLDCVWISNHHVAQSLNDKIQIWDIQSCDGKPVCELYAKKGYIESLKFNENTGALYSSDDQGFVICWDLQNLQNMKYGELVHGFNSISLDSESELLLTKQVFQCGNIIVSGMSDKNICLKSNDTKANGKGCGFLFLDMANDGSLVTLDNFCELGLHQICQVQFNVDTGKIIDGNGTGKSGISDSSMLSLSNESDHSMTETSDDMFSNSGNWDCSSANTVSEGRLNDDQEDIVFTKRMYSVNDVHLSGSTIDTTVV
MGSDKIHHHHHHMQELCSSVVLRKHSWIQYNAMSDTVIKVEKLSKEYRLGTINHGFLFRDLQSWWARRRGKEDPNSLITTYQQHLVSDDNSRLSGGRFLALDDLTFEVRQGDALGIIGRNGAGKSTLLKIISKVTSPTSGVVKIRGRVASLLEVGTGFHPELTGRENIYLNGAISGMNKKEIKNKFDEIVAFSGVEKFIDSPVKRYSSGMYVRLAFAVAAHLGPEILIVDEVLAVGDIQFQKQCLGKMDDISKGGRTVVFVSHSLQTIASLCRECILLDQGKIKKRGLPSEVILEYLGEGGSSCADFTKLGRTVGDNFVQLVMGIVQDANNEVITEIDIREPLKISMHFTVKQDTSIRYIPNFHFTVPGGTYAFVSSPSSISELSSGNYIATCNIPGNFLNEGTYYVGLAITSYEPGMTIHFFEPNVLTFSIRDPMENCVGRYGFGYANVMPGIVRPNLDWDVRKSG
MGSDKIHHHHHHMQELLCDRGKGRHADPMQNKPDTPPLSRFHQFRTADLDEARALVARNFCGHRLERQAREDAFDACQNRAGGNGLFYNYIRYGADVEIEPGELGSFYLIQVPIRGQALIRNGRTEVETGSAIASVLNPDRHTRMRWLAGCEQVLLQIDRNRLTAVAETLTGTALQSPVRFDPQIDRARPEMQRWLALFRRAVSAVDHGALLDPDQALSRALVEDELIAGFLRAQPSSIAPLLERPETGPLSPHVRRARDFMQAHLADPLTLSQIAAAAGTSPRNLQLGFSQLLEMTPLAYLRVLRLNYARYLLRESPPQVTIASIAGAAGFSHLGRFSAQYAARFGEGPSQTRKQHYLI
MGSDKIHHHHHHMQFEMHDHVKGKAMSYPVTSQPQCANTCYQTQLSDWHTGLTDCCNDMPVCLCGTFAPLCLACRISDDFGECCCAPYLPGGLHSLRTGMRERYHIQGSVGHDWAALTFCLPCALCQMARELKIRE
MGSDKIHHHHHHMQFGAKPLFENISVKFGGGNRYGLIGANGCGKSTFMKILCGDLDPSGGNVSLDVNERLGKLSQNQFGYEEFNLIDTVIMGHRELWKVKQERDRIYSLPEMSEEDGITVANLEMDFAEMDGYTAESRAGELLLGVGIGIDSHFGLMSEIAPGLKLRVLLAQALFSDPDVLLLDEPTNNLDIDTIRWLQDMLNQRSSTMVIISHDRYFLNSVCTHMADLDYGELRVYPGNYDEYMQAATQARERLLSDNAKKKAQISELQTFVARFSANASKAKQATSRARQIDKIKLDEVKASSRVNPFIRFEQEKKLFRNALVIENLTKGYDTPLFKDLNLIVEVGERIAVLGENGVGKTTLLRTLIHDIPQDAGTIQWSENANIGYYAQDHESDFANEMTLFEWMSQWRKPEDDDQSVRGILGRMLFGSDDIKKSVKVLSGGEKGRMLFGKLIMQKANILVLDEPTNHMDMESIESLNNALEMYEGTLIFVSHDRAFVSSLANRILEVTHTGVNDFRGTYDEFLASKGIEV
MGSDKIHHHHHHMQIGEVYFWTSTIKDWKNLLHQDKYKLLIIHCLKELVDRKMIKVYAFVIMPNHIHIVWEMLDQNGKEMPHASFNKKTAHEIVKDLKFNHPLVLPFFKVNEKEREYRIWQRDPLAIEMDSKKKAEQKIDYIHKNPLHERWNLAASPEEYYWSSAMYYQTGEDKFGFLTHYMERF
MGSDKIHHHHHHMQIRADFDSGNIQVIDASDPRRIRLAIRPDLASQHFQWFHFKVEGMAPATEHCFTLVNAGQSAYSHAWSGYQAVASYDGERWFRVPSQYDADGLHFQLEPEESEVRFAYFEPYSRERHARLVERALGIEGVERLAVGTSVQGRDIELLRVRRHPDSHLKLWVIAQQHPGEHMAEWFMEGLIERLQRPDDTEMQRLLEKADLYLVPNMNPDGAFHGNLRTNAAGQDLNRAWLEPSAERSPEVWFVQQEMKRHGVDLFLDIHGDEEIPHVFAAGCEGNPGYTPRLERLEQRFREELMARGEFQIRHGYPRSAPGQANLALACNFVGQTYDCLAFTIEMPFKDHDDNPEPGTGWSGARSKRLGQDVLSTLAVLVDELR
MGSDKIHHHHHHMQKDKIKTDWSHGENPEDYKCCVAFHGHDCPGLAVGYRAAQAALAALCGERAEDEELVAIVETDACGVDALQVLTGCTFGKGNLIYQDHGKHVFTLIERKSGRGVRVALKAGVMEMNERHLTLMEKVHQMTATPHETAEFWKIHSQKALEILQKPIETLFNIQPINRTLPPKARREPSRLCARCGEPAMGSKLVVLDGREVCRDCLQPEER
MGSDKIHHHHHHMQLKLSSVSKKFDHKIILEDTSFTFEQGKIYGLLGRNGAGKTTLFNCIARNLTLDGGSIQFVKDEIAFDYDNTDIGFTQTYPQLPAFMTAYEFVRFYMDIHKDKLKSPRSPEEWLNLVGIGEEDRHRLLKDFSHGMQNKVQLLLSLIVQPPVLLLDEPLTSFDPVAAHEFKQLIREAKKDSVIIFSTHILQLAQDLCDEIVLLHHQELQAVPSDKLHDPDFEQEVVTLLTAD
MGSDKIHHHHHHMQNVNSAFEYCDQLVKDFERVIEHPIVSKSSVYYTGIDLGTAYIVLAVLDENYQPVAGAYRFANVVKDGMVVDYIGAIRIVKELKQELEERLDTELVYAAAALPPGTMALDSGVIKHVVQGAGFEITNLLDEPTAANAVLKIKDGAIVDIGGGTTGITILKDGEVIYVADEPTGGTHFSLVIAGAYKMSFDEAENYKQNPKNHRELTPVVGPVVEKVSSILNRHLRDYQVETIYLVGGTCCLEGIETIIARQTGIPTYKPQNPMFVTPLGIALNCTQEIL
MGSDKIHHHHHHMQQAHNDGVVSAMSQATDARLAAQDLARQLLHPHLGFVLFFCSAEYDLQALGEALEQDFGGIRLVGCTSAGEITPLGYGRNCVTAVGFDHRHFSIATALIDEMERFSLIDAQQMVERLVGTCRSNTLAPIKGHSFALTLLDGLSSREEMVLAALSAALGDIPHFGGSAGDDNYLNRTHVYYGGAFHNGAAVVVLVNTWLDFEVFTTHHILPRQEKLVVTGADSAQRRVFELNAEPAAEEYARHIGVPVAALDHRVFAAHPLAVRIHDQYYVRAIQQMHPDLSLSFYCAVENGIVLTAMTPGPLLPNLHQLFDGLHQRLGPLLLTIGCDCFLRRLELEAHRGLEPVGAFLREQRVIGFNTYGEQFNGMHINQTFTGVAIARNRPPVGR
MGSDKIHHHHHHMQQPLAYRMRPRHLDEVVGQQHLVGPGKIIRRMVEAKMLSSMILYGPPGTGKTSIASAIAGSTNYAFRMLNAATDTKKDLQIVAEEAKMSGTVILLLDEIHRLDKTKQDFLLPHLENGRIIMIGATTENPYITINPAIRSRTQIFEVKPLTETDIQQAIQEALTDSTRGLGDYPVHLEEKALQHLTRATNGDLRSALNGLELAVKSTPKNEQGEIKITLPIIEECVQRKALTHVKDGDAHYDVISAFQKSIRGSDVDAALHYLGRLVEAGDLPIICRRLMVIAYEDIGLGNPAAAARTVTAVQAAEKLGFPEARIPLASVVIDLCLSPKSNSAVTAIDAALADIRQGSVGDVPDHLRDAHYAGAKELNRGIGYQYPHNFENGWVNQQYLPDKLKEARYYEPIDIGKYEQALHQQLKRIQEWKQKK
